The source of these data is patent US20240287172A1 (SCIRHOM, published 2024).

This test has as its target T1, hiR2-FL-F588H-T7 (human, UniProt Q6PJF5 1-856).
T1 sequence: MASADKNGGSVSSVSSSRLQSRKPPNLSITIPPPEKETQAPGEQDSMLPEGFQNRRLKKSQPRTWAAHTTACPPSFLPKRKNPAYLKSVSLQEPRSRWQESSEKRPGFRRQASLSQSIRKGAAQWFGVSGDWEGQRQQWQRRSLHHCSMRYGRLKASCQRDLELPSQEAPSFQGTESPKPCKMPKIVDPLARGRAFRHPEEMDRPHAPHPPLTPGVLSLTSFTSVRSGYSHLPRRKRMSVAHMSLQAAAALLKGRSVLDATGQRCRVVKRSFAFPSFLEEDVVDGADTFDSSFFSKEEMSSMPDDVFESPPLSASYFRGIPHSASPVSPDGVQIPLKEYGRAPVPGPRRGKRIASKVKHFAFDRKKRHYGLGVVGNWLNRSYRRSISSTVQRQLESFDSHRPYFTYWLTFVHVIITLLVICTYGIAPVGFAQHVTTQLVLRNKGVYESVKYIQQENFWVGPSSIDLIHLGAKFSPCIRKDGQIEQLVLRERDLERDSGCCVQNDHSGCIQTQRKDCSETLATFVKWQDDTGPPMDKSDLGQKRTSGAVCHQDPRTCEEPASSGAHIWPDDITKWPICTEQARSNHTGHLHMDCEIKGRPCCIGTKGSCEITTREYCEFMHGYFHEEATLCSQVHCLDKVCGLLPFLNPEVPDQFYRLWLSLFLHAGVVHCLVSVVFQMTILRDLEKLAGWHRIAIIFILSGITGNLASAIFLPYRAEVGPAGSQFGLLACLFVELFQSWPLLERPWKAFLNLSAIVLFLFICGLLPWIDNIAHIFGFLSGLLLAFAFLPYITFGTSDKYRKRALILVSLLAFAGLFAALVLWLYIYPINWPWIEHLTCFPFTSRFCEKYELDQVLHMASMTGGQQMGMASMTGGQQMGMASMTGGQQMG
As to the kind of experiment: FACS, MEF-DKO cells, 3 µg/ml. The method, boiled down:
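MEF-DKO cells expressing T7-tagged full-length hiR2 point mutants were stained on ice for 1 h with purified antibodies at 3 μg/ml in FACS buffer. Detection used PE-conjugated goat anti-mouse IgG F(ab′)2 (1:100, 1 h on ice), read by flow cytometry; buffer-only wells served as controls.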
On the technique in general: A flow cytometer gives signals particle by particle.

B1: antibody 3 (antibody, V domains shown)
VH: QVTLKESGPGILQPSQTLSLTCSFSGFSLTTFAMGIGWVRQPSGKGLEWLAHIWWDGEKYNNPVLKSRLTISKDTSKNQVFLRIANVDTPDTATYYCARISSIYYIIDNWGQGTSVTVSS
VL: DIVLTQSPATLSVTPGHSVSLSCRASQSISNNLHWYQKKSHESPRLLIKYVSQSISGIPSRFSGSGSGTDFTLSINSVETEDFGMYFCQQSYNWPLTFGAGTKLELK
notes: mouse IgG, kappa light chain; also called clone #3; purified antibody 3
Consider B1, for which the “loss of binding vs wild type” value was at least 30%.
